Assay results: publication PMC3689846 (Science (New York, N.Y.), 2013)

Molecular target: eOD-GT6 (germline-targeting engineered outer domain of gp120) (HIV-1 isolate HXB2, engineered outer …)
Assay: SPR

B1: NIH45-46 (mature) (antibody, V domains shown)
VH: QVRLSQSGGQMKKPGESMRLSCRASGYEFLNCPINWIRLAPGRRPEWMGWLKPRGGAVNYARKFQGRVTMTRDVYSDTAFLELRSLTSDDTAVYFCTRGKYCTARDYYNWDFEHWGRGAPVTVSS
VL: EIVLTQSPATLSLSPGETAIISCRTSQSGSLAWYQQRPGQAPRLVIYSGSTRAAGIPDRFSGSRWGADYNLSISNLESGDFGVYYCQQYEFFGQGTKVQVD
Kd: 4 nM
